In US20100285583A1, “COMPOUNDS AND METHODS FOR INHIBITING PLATELET AGGREGATION” (priority 2009, published 2010):

Experiments:
Human washed platelets = experiment: Platelet immunofluorescence analysis (subcellular localization); assay type: cell-based; conditions: 1.9 μM
Description: Washed platelets (50 μl of […] in Tyrode's albumin buffer) were incubated with 1.9 μM of PTB domain constructs for 5 min at room temperature in the presence of 0.25 g/L fibrinogen. Aggregation was initiated by the addition of 10 μM TRAP. Reactions were incubated at room temperature unless otherwise indicated. Platelets were fixed with 0.4 mL of 3.7% formaldehyde in Phosphate Buffered Saline (PBS) for 30 min. Next, 20% goat serum was added to the fixed platelets, and 60% of the total fixed reaction was centrifuged using a Shandon cytospinner onto a Shandon coated cytoslide to achieve the appropriate platelet density for analysis. Slides were then washed twice with PBS for 10 min. Platelets were permeabilized with 0.5% Triton X-100 in PBS for 10 min and then blocked with 20% goat serum in PBS with 0.1% Triton X-100 for 1 h at room temperature. Platelets were washed 3 times with PBS with 0.1% Triton for 10 minutes and further incubated overnight with the anti-Dab2 antibody 1:100 (anti-p96; BD Transduction) in PBS with 0.1% Triton X-100 and 10% goat serum at 4° C. in a humidity chamber. Platelets were then washed and incubated with the anti-mouse Cy-3 conjugated goat antibody 1:250 and Alexa488 conjugated phalloidin (25 μg/mL) in PBS with 0.1% Triton X-100 and 10% goat serum for 2 h. Platelets were washed again and observed on an Olympus IX71 microscope using the Softworx Applied Precision software.
Mean pixel intensity was determined for 400 platelets from four fields each for 3 min and 10 min of treatments by manually drawing circles around individual platelets using the 2D Polygon tool in the Softworx software. For each time point, a threshold of significant mean pixel intensity was defined for the experiment. The percentage of countable platelets to exceed the threshold was calculated for each field and the average of four fields was computed with standard deviation. The ratio of internalization:binding is the quotient of these averages for a treatment.

[1] = tested on: platelet and leukocyte mixtures; experiment: Platelet-leukocyte aggregation assay (flow cytometry, CD42b on leukocytes); assay type: cell-based, human; conditions: ADP 30 μM, sulfatide liposomes
Description: Whole blood was collected as indicated above and centrifuged at 200 g to separate the blood from plasma and red blood cell fractions. Plasma and buffy coat layer were carefully removed and diluted 1:1 with PBS. The dilution was then layered onto a Ficoll Plus gradient and spun at 200 g for 20 min. The enriched platelet and leukocyte layer was removed, diluted with PBS, centrifuged and the pellet resuspended in Tyrode's Albumin buffer to a concentration of ˜3×10^5 platelets/μL and 3×10^3 leukocytes/μL. Isolated platelet-leukocyte mixtures were remained unactivated or activated with ADP (30 μM). Both unactivated and activated platelets were incubated for 10 min at 23° C. with liposomes (50 μg/mL) either without (liposomes control) or with sulfatides, and N-PTB constructs (1 μM). Reactions were fixed with 1% formalin and incubated with APC-labeled CD42b (Biolegend) and FITC-labeled CD45 (Biolegend) antibodies. Bound antibodies were quantified using a FacsAria flow cytometer.
Platelet P-selectin mediates platelet-leukocyte interactions through binding of leukocyte PSGL-1 (Merten 2005). […] Platelet binding of leukocytes was quantified through the fluorescence of allophycocyanin (APC) labeled anti-human CD42b (platelet marker) detected on leukocytes. The fluorescence was detected using flow cytometry analysis of platelet-leukocyte mixtures.

[2] = Protein-lipid overlay assay, sulfatides; assay type: binding; conditions: Sphingolipid strips, GST-Dab2 PTB
Description: Membrane strips (SphingoStrips™) spotted with 100 pmol of sphingolipids were purchased from Echelon Research Laboratories. Membrane strips were incubated with 0.1 μg/ml of the Dab2 PTB domain or its mutants in 20 mM Tris-HCl (pH 8.0), 150 mM NaCl, 0.1% Tween-20 and 3% fatty acid-free bovine serum albumin overnight at 4° C. Following four washes with the same buffer, proteins bound to the membrane strips were probed with rabbit anti-GST antibody (Santa Cruz Biotech). Donkey anti rabbit-horse radish peroxidase (HRP) antibody was obtained from GE Healthcare. Detection was carried out using ECL reagent (Pierce). Also, lipid strips were prepared by spotting 1 μl of either sulfatides or PtdIns(4,5)P2 dissolved in chloroform:methanol:water (1:2:0.8 and 65:35:8, respectively) onto Hybond-C extra membranes (GE Healthcare) and protein binding was monitored as described above. Bound protein was quantified using the AlphaImager program and binding was calculated as a percentage of GST-PTB binding to 100 pmoles of spotted lipid.

[3] = tested on: platelet surface P-selectin; experiment: Flow cytometry, platelet surface P-selectin; assay type: cell-based, human; conditions: for inhibition of sulfatide induced activation (surface P-selectin): ADP 30 μM, sulfatide liposomes 50 μg/mL
Description: Washed platelets (2.5×10^5 platelets/μL) were kept unactivated or either activated with ADP (30 μM) or TRAP (10 μM). Both unactivated and activated platelets were incubated for 10 min at 23° C. with liposomes (50 μg/mL) either without (liposomes control) or with sulfatides, and N-PTB constructs (1 μM). Reactions were fixed with 1% formalin and incubated with PE- labeled CD62p anti-P-selectin (BioLegend) or FITC-labeled PAC-1 anti-integrin receptor (BD Transduction) antibodies. Bound antibodies were quantified using a FacsAria flow cytometer.
Once present, P-selectin is able to interact with sulfatides which triggers an internal phosphorylation pathway thought to be mediated by p38 (FIG. 12A) (Merten 2005). This cascade results in further de-granulation and an increase in surface P-selectin (Merten 2005). To monitor the de-granulation of platelets, two activation markers were evaluated using fluorescent antibodies specific for P-selectin and the αIIbβ3 integrin. Marker surface expression was quantified using fluorescence-activated cell sorting (FACS) analysis, and measuring the median fluorescent signal of 10,000 platelets. The median signal was used as our reference to quantify the data set as median values are less affected by the wide range of platelet signals and is therefore more representative of the population. When platelets were stimulated with ADP (30 μM) they show increases in both surface P-selecting and αIIbβ3 integrin expression. In the presence of sulfatides (50 μg/mL), in the form of enriched liposomes, the levels of P-selectin and αIIbβ3 integrin were further increased to about 20-25 fold their un-stimulated levels (FIG. 12B). […] The levels of P-selectin and αIIbβ3 integrin were measured among several different individuals and the levels varied greatly between them; however; consistently, sulfatides induced a ˜20 fold increase over un-stimulated platelets and a ˜10 fold increase over ADP stimulated platelets.

binding to sphingolipids [2]: preferentially bound to sulfatides
IC50 ([3]; titration 1 nM-1 μM, ADP stimulated platelets, logarithmic curve fit, read-out: IC50, inhibition of sulfatide induced P-selectin marker expression): 121 nM
B1: N-PTB: N-terminal phosphotyrosine binding domain (residues 1-241) of human Disabled-2 (Dab2), expressed as GST-fusion in E. coli (protein)
chain: MSNEVETSATNGQPDQQAAPKAPSKKEKKKGPEKTDEYLLARFKGDGVKYKAKLIGIDDVPDARGDKMSQDSMMKLKGMAARGRSQGQHKQRIWVNISLSGIKIIDEKTGVIEHEHPVNKISFIARDVTDNRAFGYVCGGEGQHQFFAIKTGQQAEPLVVDLKDLFQVIYNVKKKEEEKKKIEEASKAVENGSEALMILDDQTNKLKSGVDQMDLFGDMSTPPDLNSPTESKDILLVDLNS
localization at the platelet surface (Human washed platelets; 3 min after TRAP stimulation): clearly localized at the platelet surface
internalization (Human washed platelets; 10 min after activation): internalized
inhibition of platelet-leukocyte binding [1]: decreased platelet binding to leukocytes
inhibition of platelet-leukocyte binding ([1]; listed as N-PTB^4M): no inhibition of platelet-leukocyte binding
inhibition of sulfatide induced activation (surface P-selectin) [3]: remained at ADP stimulated levels
inhibition of sulfatide induced activation (surface P-selectin) ([3]; listed as N-PTB^4M): no inhibition of sulfatide induced activation
